Residue numbers refer to the chain shown, from its start.

The labels stand for the following.
B1: 2M24A.23 hFab H1 (Fab, V domains shown)
VH: QVQLVQSGAEVKKPGASVKVSCKSSGYTFTDYYIHWVRQAPGQGLEWMGWINPNSGDTNYAQKFQGRVTMTRDTSISTAYMELSRLRSDDTAVYYCARNSGSYSFGYWGQGTLVTVSS
VL: DIQMTQSPSSVSASVGDRVTITCRASQGISSWLAWYQQKPGKAPKLLIFGASSLQSGVPSRFSGSGSGTDFTLTVSSLQPEDFATYYCQQAYSFPFTFGPGTKVDIE
B2: 2M24A.26 hFab H4 (Fab, V domains shown)
VH: B1 VH with I34M
VL: B1 VL
B3: 2M24A.25 hFab H3 (Fab, V domains shown)
VH: B1 VH with S24A
VL: B1 VL
B4: 2M24A.1.12 hFab (Fab, V domains shown)
VH: B1 VH with D57A, V68I, M81L, Y94F
VL: B1 VL
B5: 2M24A.1.17 (Fab, V domains shown)
VH: B1 VH with V68I, M81L, Y94F, G101A
VL: B1 VL
B6: 2M24A.1.11 hFab (Fab, V domains shown)
VH: B1 VH with D31A, V68I, M81L, Y94F
VL: B1 VL
B7: 2M24A.1.16 (Fab, V domains shown)
VH: B1 VH with V68I, M81L, Y94F, S100A
VL: B1 VL
B8: 2M24A.1.22 (Fab, V domains shown)
VH: B1 VH with V68I, M81L, Y94F, Y107A
VL: B1 VL
B9: 2M24A.1.7 hFab (Fab, V domains shown)
VH: B1 VH with D57A, V68I, M81L, Y94F
VL: B1 VL with Y92F
B10: 2M24A.1.18 (Fab, V domains shown)
VH: B1 VH with V68I, M81L, Y94F, S102A
VL: B1 VL
B11: 2M24A.1.2 hFab (Fab, V domains shown)
VH: B1 VH with D57A, V68I, M81L, Y94F
VL: B1 VL with Y92A
B12: 2M24A.1.14 hFab (Fab, V domains shown)
VH: B1 VH with V68I, M81L, Y94F, Y103A
VL: B1 VL
B13: 2M24A.1.8 hFab (Fab, V domains shown)
VH: B1 VH with V68I, M81L, Y94F, N99A
VL: B1 VL with Y92F
B14: 2M24A.1.9 hFab (Fab, V domains shown)
VH: B1 VH with V68I, M81L, Y94F, Y103A
VL: B1 VL with Y92F
B15: 2M24A.1.20 (Fab, V domains shown)
VH: B1 VH with V68I, M81L, Y94F, F105A
VL: B1 VL
B16: 2M24A.1.1 hFab (Fab, V domains shown)
VH: B1 VH with D31A, V68I, M81L, Y94F
VL: B1 VL with Y92A
B17: 2M24A.1.19 (Fab, V domains shown)
VH: B1 VH with V68I, M81L, Y94F, S104A
VL: B1 VL
B18: 2M24A.1.21 (Fab, V domains shown)
VH: B1 VH with V68I, M81L, Y94F, G106A
VL: B1 VL
B19: 2M24A.1.15 (Fab, V domains shown)
VH: B1 VH with V68I, M81L, Y94F, R98A
VL: B1 VL
B20: 2M24A.1.6 hFab (Fab, V domains shown)
VH: B1 VH with D31A, V68I, M81L, Y94F
VL: B1 VL with Y92F
B21: 2M24A.1.13 hFab (Fab, V domains shown)
VH: B1 VH with V68I, M81L, Y94F, N99A
VL: B1 VL
B22: 2M24A.1.4 hFab (Fab, V domains shown)
VH: B1 VH with V68I, M81L, Y94F, Y103A
VL: B1 VL with Y92A
B23: 2M24A.1.3 hFab (Fab, V domains shown)
VH: B1 VH with V68I, M81L, Y94F, N99A
VL: B1 VL with Y92A

The target of the first assay is recombinant human-Dectin-1 mouse Fc fusion (human) (UniProt Q9BXN2). The experiment in a line: biosensor, Fab, first K dis column.
As to B1, the koff was 0.00841 s⁻¹.

Consider B2, for which the koff was 0.0053 s⁻¹.

Regarding B3, the off-rate constant (koff) stood at 0.00765 s⁻¹.

For a further assay the target is unchanged. Kind of assay: biosensor, Fab, Ave K dis (n = 3); repeats Table 3.
B1: the koff was determined as 0.00396 s⁻¹.

On to B2, for which the koff was determined as 0.00264 s⁻¹.

Regarding B3, the koff stood at 0.0037 s⁻¹.

For another assay the target is unchanged. Kind of assay: Octet BLI, delta between the two X values.
On to B4, for which the delta was 19%.

Take B5: the delta worked out at 1%.

Turning to B6, the delta stood at 16%.

For the molecule B7, the delta was 5%.

For the molecule B8, the delta came out at 15%.

Regarding B9, the delta amounted to 22%.

In the case of B10, the delta was 9%.

For B11, the delta amounted to 98%.

Take B12: the delta is 100%.

On to B13, for which the delta was 100%.

As for B14, the delta was determined as 100%.

As for B15, the delta is 78%.

Turning to B16, the delta is 98%.

For the molecule B17, the delta came to 22%.

Regarding B18, the delta came out at 8%.

For B19, the delta was found to be 62%.

With B20, the delta is 21%.

Consider B21, for which the delta is 100%.

For another assay the target is unchanged. The experiment in a line: biosensor, Fab, third K dis column.
Consider B1, for which the koff was found to be 0.00204 s⁻¹.

Regarding B2, the off-rate constant (koff) stood at 0.0016 s⁻¹.

As to B3, the koff amounted to 0.00214 s⁻¹.

Another assay shares this target. The experiment in a line: biosensor, Fab, second K dis column.
For the molecule B1, the koff turned out to be 0.00143 s⁻¹.

In the case of B2, the koff is 0.00102 s⁻¹.

Consider B3, for which the dissociation rate constant (koff) turned out to be 0.00132 s⁻¹.

For a further assay the target is unchanged. Kind of assay: Octet BLI, response at X.
Consider B4, for which the X = 340 turned out to be 0.49 and the X = 470 was determined as 0.399.

Regarding B5, the X = 290 came out at 0.131 and the X = 350 was found to be 0.129.

For B6, the X = 340 stood at 0.499 and the X = 470 was found to be 0.418.

B7: the X = 290 was 0.12 and the X = 350 stood at 0.114.

With B8, the X = 290 stood at 0.131 and the X = 350 was 0.112.

Consider B9, for which the X = 340 is 0.51 and the X = 470 was determined as 0.398.

For the molecule B10, the X = 290 worked out at 0.138 and the X = 350 stood at 0.124.

On to B11, for which the X = 340 was determined as 0.331 and the X = 470 was found to be 0.006.

As for B12, the X = 340 was determined as 0.106 and the X = 470 came to 0.

With B13, the X = 340 is 0.042 and the X = 470 is 0.

With B14, the X = 340 was determined as 0.018 and the X = 470 came out at 0.

B15: the X = 290 is 0.0981 and the X = 350 was 0.0215.

Take B16: the X = 340 worked out at 0.305 and the X = 470 was 0.006.

Take B22: the X = 340 stood at 0 and the X = 470 came to 0.

Take B17: the X = 290 amounted to 0.126 and the X = 350 came to 0.0983.

On to B18, for which the X = 290 came out at 0.125 and the X = 350 amounted to 0.114.

Turning to B19, the X = 290 was found to be 0.082 and the X = 350 amounted to 0.0314.

With B23, the X = 340 was 0 and the X = 470 stood at 0.

In the case of B20, the X = 340 was determined as 0.493 and the X = 470 worked out at 0.39.

Take B21: the X = 340 was determined as 0.028 and the X = 470 is 0.

The target is the same in another assay. The experiment in a line: biosensor, Fab, Ave of three.
On to B1, for which the koff turned out to be 0.00396 s⁻¹.

For B2, the dissociation rate constant (koff) was 0.00264 s⁻¹.

Turning to B3, the koff worked out at 0.0037 s⁻¹.
